Results: the Human Domainome abundance scans (Beltran et al. 2025)

B1: Ankyrin repeat and SAM domain-containing protein 6, residues 774 to 836; numbered along this chain, Q68DC2 (parent)
chain: DEDELTGILKKLSLEKYQPIFEEQEVDMEAFLTLTDGDLKELGIKTDGSRQQILAAISELNAG

Variants of: B1
Experiment: abundance fitness (aPCA) (normalised: wild type 0, dead -1); higher = more abundant; growth selection in yeast, the domain comes from the species named
Conditions: Homo sapiens

Abundance fitness: each site, then its substitutions
D36: V -0.571
R50: P -0.649 | I -0.292 | A -0.494 | Y -0.834 | K -0.582 | M -0.722 | W -0.706 | G -0.677 | E -0.526 | H -0.527 | L -0.623 | T -0.71 | V -0.492 | N -0.653 | Q -0.621 | F -1 | C -0.363 | S -0.524
K45: R -0.027 | F -0.143 | M 0.008 | D 0.079 | I -0.348 | L -0.066 | Y -0.233 | G -0.114 | Q -0.151 | A -0.055 | N -0.079 | H -0.076 | T -0.02 | V -0.225 | C -0.191 | P -0.044 | E 0.013
I44: P -0.746 | S -0.651 | G -0.592 | E -0.586 | F -0.144 | R -0.676 | Y -0.766 | A -0.574 | H -0.806 | T -0.555 | C -0.458 | V 0.037 | L -0.245 | M -0.253 | Q -0.643 | W -0.654 | N -0.645
I53: D -0.33 | A -0.331 | H -0.481 | T -0.345 | C -0.404 | E -0.319 | V -0.104 | M -0.062 | Q -0.686 | R -0.559 | F -0.432 | N -0.451 | S -0.44 | P -0.44 | W -0.904 | L -0.002
G37: S -0.058 | L -0.049 | W -0.331 | A 0.004 | E -0.001 | N -0.095 | F -0.051 | D 0.117 | V -0.028 | Y -0.138 | P -0.035 | T -0.064 | H -0.087 | C -0.269 | R -0.111 | K 0.033
L54: P -0.311 | D -0.59 | W -0.813 | Y -0.634 | K -0.245 | V -0.252 | M -0.137 | F -0.757 | Q -0.273 | H -0.439 | C -0.075 | T -0.312 | A -0.359 | I -0.133 | S -0.234 | G -0.433 | R -0.337 | E -0.24
L39: D -0.499 | G -0.699 | R -0.599 | N -0.514 | V -0.57 | H -0.751 | T -0.667 | A -0.59 | C -0.662 | Q -0.605 | F -0.616 | W -1 | E -0.625 | S -0.683 | M -0.437 | Y -0.673 | P -0.747 | K -0.912
S49: H 0.009 | V 0.062 | E 0.181 | Q -0.03 | C 0.096 | M -0.068 | L -0.191 | F -0.249 | K -0.186 | G -0.055 | Y -0.242 | R -0.192 | P -0.208 | W -0.391 | N 0.003 | D 0.157 | T -0.054
E41: Y -0.321 | S -0.022 | M -0.263 | Q 0.044 | H -0.045 | G -0.092 | F -0.376 | L -0.205 | W -0.498 | A -0.047 | N -0.052 | P -0.658 | C -0.113 | V -0.232 | T -0.039 | I -0.472 | D -0.044 | K -0.109 | R -0.049
Q52: G -0.279 | C -0.12 | E 0.079 | W -0.805 | T -0.2 | N -0.193 | D 0.112 | K -0.095 | S -0.105 | A -0.04 | F -0.667 | Y -0.574 | H -0.155 | M -0.302 | L -0.132 | I -0.211 | P -0.715
D38: H -0.418 | F -1.28 | Q -0.165 | S -0.232 | W -0.965 | V -1.06 | I -1.12 | C -0.773 | E -0.072 | Y -1.11 | L -1.16 | R -0.074 | M -0.611 | A -0.49 | T -0.369 | P -0.645 | G -0.273 | K -0.188 | N -0.2
A56: E 0.004 | T -0.113 | I -0.486 | L -0.17 | G 0.009 | C 0.007 | S -0.157 | H -0.147 | D -0.183 | V -0.133 | N -0.385 | Y -0.109 | K -0.202 | W -0.708 | M -0.227 | F -0.246 | P -0.377
A55: G 0.105 | P -0.528 | V -0.301 | K 0.112 | L -0.159 | Q -0.022 | I -0.203 | F -0.256 | T 0.063 | C 0.046 | N 0.014 | S 0.043 | R 0.108 | W -0.386 | M -0.21 | Y -0.128 | E 0.031
G43: S -0.477 | Y -1.22 | C -0.742 | Q -0.608 | W -1.16 | T -0.675 | L -0.655 | I -1.07 | P -0.683 | R -0.616 | K -0.326 | M -0.611 | H -0.556 | D -0.199
Q51: D -0.076 | R -0.092 | A -0.084 | Y -0.483 | V -0.233 | C -0.379 | W -0.724 | S -0.082 | L -0.252 | N -0.044 | P -0.54 | E -0.128 | G -0.216 | M -0.215 | T -0.163
T46: Q -0.201 | E 0.084 | N -0.159 | V -0.138 | D 0.118 | Y -0.197 | M -0.039 | C 0.016 | K 0.061 | L -0.116 | W -0.521 | H 0.151 | I -0.019 | S 0.017 | F -0.361 | G -0.011 | P -0.048
I57: H -0.254 | M -0.539 | A -0.248 | T -0.221 | Q -0.116 | N -0.437 | E -0.414 | S -0.282 | V -0.206 | W -0.675 | L -0.257 | C -0.277 | K -0.349 | G -0.37 | F -0.675
K40: F -0.326 | T -0.138 | Y -0.115 | D -0.084 | H -0.286 | L -0.036 | G -0.31 | E -0.041 | Q -0.142 | W -0.263 | N -0.146 | C -0.215 | S -0.096 | V 0.044 | P -0.67 | A -0.121
D47: S -0.114 | I -0.058 | N -0.126 | R -0.149 | E 0.056 | V -0.049 | C -0.128 | W -0.309 | K -0.126 | F -0.14 | G -0.158 | Y -0.114 | Q -0.054 | H 0.042 | M -0.138 | T -0.029 | A -0.061 | L -0.089
G48: F -0.339 | A -0.047 | K -0.131 | W -0.424 | Q -0.039 | Y -0.321 | T 0.149 | E 0.107 | S 0.007 | L -0.042 | M -0.113 | D -0.016
